Earlier results on one substance are cited in paper PMC10522771.

The Kd is the free concentration of one partner at which half of the binding sites on the other are occupied at equilibrium, for simple one-to-one binding.

One series concerns the target CBP TAZ1 (Homo sapiens) (UniProt Q92793).
For a further series, the target named is CBP TAZ2 (Homo sapiens) (UniProt Q92793).
CBP TAZ2 (Homo sapiens), sequence (Q92793 1764-1855): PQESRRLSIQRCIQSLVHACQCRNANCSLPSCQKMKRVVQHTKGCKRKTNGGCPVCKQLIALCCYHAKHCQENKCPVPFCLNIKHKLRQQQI

MITF N-terminal TAD, sequence (O75030 224-295): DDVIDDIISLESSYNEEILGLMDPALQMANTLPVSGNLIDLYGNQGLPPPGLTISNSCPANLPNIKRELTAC
CBP TAZ1 (Homo sapiens), sequence (Q92793 340-439): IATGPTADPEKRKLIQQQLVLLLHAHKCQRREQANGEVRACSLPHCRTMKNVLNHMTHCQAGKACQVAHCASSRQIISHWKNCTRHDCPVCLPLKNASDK

Take “MITF N-terminal TAD (from UniProt O75030)”: the Kd in the series with CBP TAZ1 (Homo sapiens) was 6.7 µM; with CBP TAZ2 (Homo sapiens), 1.2 µM.
